The results in this text go back to patent publication CN116023497A (WEST CHINA HOSPITAL SICHUAN UNIV, dated 2023).

For one assay, the target named is T1, DDR2胞外段 (UniProt Q16832 22-399).
T1 construct: range 22-399; also called DDR2 ECD
T1 sequence (looked up): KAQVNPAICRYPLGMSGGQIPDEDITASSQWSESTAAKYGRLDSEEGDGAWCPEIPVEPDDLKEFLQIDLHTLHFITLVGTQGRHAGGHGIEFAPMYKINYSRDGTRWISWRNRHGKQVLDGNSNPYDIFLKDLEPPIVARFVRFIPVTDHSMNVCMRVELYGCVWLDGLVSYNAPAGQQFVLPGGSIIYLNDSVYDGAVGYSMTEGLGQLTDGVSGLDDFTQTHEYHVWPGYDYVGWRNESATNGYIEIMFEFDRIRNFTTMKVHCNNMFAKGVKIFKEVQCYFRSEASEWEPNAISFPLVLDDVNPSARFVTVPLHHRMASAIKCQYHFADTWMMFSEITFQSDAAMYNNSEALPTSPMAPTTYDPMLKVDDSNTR
Briefly: ELISA, coated DDR2 ECD, dilution series of Tytug.

Assay [1] addresses T2, DDR1胞外段(DDR1 ECD), His标签 (human).
T2 chain: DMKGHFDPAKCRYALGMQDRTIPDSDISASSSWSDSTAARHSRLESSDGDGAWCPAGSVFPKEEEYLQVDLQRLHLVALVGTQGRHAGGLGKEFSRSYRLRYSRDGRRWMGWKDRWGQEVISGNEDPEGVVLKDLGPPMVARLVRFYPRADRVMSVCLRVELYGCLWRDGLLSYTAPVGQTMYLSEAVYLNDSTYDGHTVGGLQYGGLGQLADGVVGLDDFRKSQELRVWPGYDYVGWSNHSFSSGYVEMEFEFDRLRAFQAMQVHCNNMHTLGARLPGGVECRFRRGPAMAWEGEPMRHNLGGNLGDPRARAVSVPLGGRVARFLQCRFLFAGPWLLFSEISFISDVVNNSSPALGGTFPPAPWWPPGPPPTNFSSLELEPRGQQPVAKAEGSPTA
Briefly: SPR (Biacore), 1:1 model; His-tagged DDR1 ECD on NTA chip, Tytug as analyte; exponent printed without minus sign, kd/ka gives 2.26e-10.

For assay [2], the target named is T2, DDR1胞外段(DDR1 ECD), His标签. Briefly: SPR (Biacore), 1:1 model; His-tagged DDR1 ECD on NTA chip, Tytug as analyte.

B1: Tytug抗体 (antibody, IgG1, V domains shown)
VH: QVQLQQPGAELVRPGSSVRLSCKASGYSFTSYWMNWVKQRPGQGLEWIGMIHPSDSKTRLDQKFKDKATLTVDKSSSTAYMQLSSPTSEDSAVYYCAREGTYYYAMDFWGQGTSVTVSS
VL: DVLMTQTPLSLPVSLGDQASISCRSSQTIVHSNGNTYLEWYLQKPGQSPKLLIYKVSNRFSGVPDRFSGSGSGTDFTLKISRVEAEDLGVYYCFQGSHDPYTFGGGTKLEIK
notes: Mouse hybridoma monoclonal antibody; also called T4-E11-F10; T4-E11-F10(Tytug)
As to B1, in the assay with DDR2胞外段, the binding result was “no binding”. In the assay with DDR1胞外段(DDR1 ECD), His标签 [1], this molecule returned a Kd of 0.226 nM. Besides, in the assay with DDR1胞外段(DDR1 ECD), His标签 [2], the koff came to 4.66e-05 s⁻¹ and the kon turned out to be 207000 M⁻¹ s⁻¹.
